Assay results reported in publication PMC5872582.

Target: L1 ORF1p-T7 (T7-tagged ORF1 protein expressed from the L1 construct pAD2TE1) (human) (UniProt Q9UN81)
Assay: co-IP; 293T cells cotransfected with pAD2TE1 and the partner; lysis 48 h posttransfection in 160 mM NaCl, 50 mM Tris-HCl pH 7.5, 1 mM EDTA, […] NP-40 with RNaseOUT; ORF1p-T7 precipitated with anti-T7 monoclonal antibody on magnetic beads; immunoblot; signals normalized on T7 signal in IP and myc signal in WCL

Sequence of UniProt Q9UN81 (Q9UN81 whole entry): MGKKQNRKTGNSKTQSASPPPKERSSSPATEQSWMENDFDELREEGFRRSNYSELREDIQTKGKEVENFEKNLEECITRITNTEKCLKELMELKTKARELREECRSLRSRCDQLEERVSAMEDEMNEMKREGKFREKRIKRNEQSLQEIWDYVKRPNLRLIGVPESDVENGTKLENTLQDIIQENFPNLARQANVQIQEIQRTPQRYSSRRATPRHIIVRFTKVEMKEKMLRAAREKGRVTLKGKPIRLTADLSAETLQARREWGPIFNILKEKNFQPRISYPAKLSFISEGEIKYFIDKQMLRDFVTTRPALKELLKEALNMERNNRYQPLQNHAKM

human SAMHD1 T592A, myc-tagged (from UniProt Q9Y3Z3 1-626) (natural protein)
normalized densitometric intensity of the co-precipitated band: 100%

human SAMHD1 T592D, myc-tagged (from UniProt Q9Y3Z3 1-626) (natural protein)
normalized densitometric intensity of the co-precipitated band: 24%
